Laboratory results taken from US20150147318A1 (ZOETIS SERVICES, published 2015).
Changes are numbered by the printed parent chain. In names and notes the source's numbering stands.

B1: murine anti-NGF monoclonal antibody RN911 (antibody, V domains shown)
VH: QVQLKESGPGLVAPSQSLSITCTVSGFSLIGYDINWVRQPPGKGLEWLGMIWGDGTTDYNSALKSRLSISKDNSKSQVFLKMNSLRTDDTATYSCARGGYYYGTSYYFDYWGQGTTLTVSS
VL: DIQMTQTTSSLSASLGDRVTISCRASQDISNHLNWYQQKPDGTVKLLIYYISRFHSGVPSRFSGSGSGTDYSLTISNLEQEDIATYFCQQSKTLPYTFGGGTKLEIKR
notes: Mouse mAb; also called MU-RN911
B2: LTM construct 45 (HC Y100W, LC H32N) (antibody, V domains shown)
VH: EVQLVESGGDLARPGGSLKLSCVVSGFSLIGYDINWVRQAPGKGLQWVTMIWGDGTTDYNSALKSRFTVSRDNAMNTVYLQMNSLRVEDTAVYYCARGGWYYGTSYYFDYWGQGTLVTVSS
VL: DIVMTQTPLSLSVSPGETASISCRASQDISNNLNWFRQKPGQSPQRLIYYISRFHSGVPDRFSGSGSGTDFTLRISRVEADDTGVYYCQQSKTLPYTFGAGTKLEIK
notes: Point mutant of canE3M65 as full IgG; Constant regions are not restated
B3: LTM109 (HC Y101W, G103A; LC D28S, H32N, K92H) (antibody, V domains shown)
VH: B2 VH with W100Y, Y101W, G103A
VL: B2 VL with D28S, K92H
notes: Full IgG; constant regions are not restated; also called CAN-LTM109-VH / CAN-LTM109-VL

Legend:
[1] = target: T1, recombinant canine Nerve Growth Factor (Canis lupus familiaris NGF) (canine (Canis lupus familiaris), UniProt Q29074 110-229 (pig entry), limits assumed); assay: cell-based or functional assay
T1 chain: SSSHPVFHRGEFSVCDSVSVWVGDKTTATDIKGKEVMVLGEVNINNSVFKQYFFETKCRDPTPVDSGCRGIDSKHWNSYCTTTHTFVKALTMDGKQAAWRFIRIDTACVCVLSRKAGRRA

[2] = target: T1, recombinant canine Nerve Growth Factor …; assay: method not stated; recombinant canine NGF
[3] = target: T1, recombinant canine Nerve Growth Factor …; assay: SPR trkA inhibition: mAb pre-incubated with NGF, binding of NGF to trkA measured in RU
[4] = target: T1, recombinant canine Nerve Growth Factor …; assay: SPR, Biacore T100, dog NGF; run 11/24
[5] = target: T1, recombinant canine Nerve Growth Factor …; assay: SPR, Biacore T100, dog NGF; run 11/29

Binder | EC50, pERK inhibition, PC-12 (Rat Neuronal), pre-incubation 1 hour, 2/23/11 (RN911) [1] | EC50, pERK inhibition, PC-12 (Rat Neuronal), pre-incubation 1 hour, 3/26/11 (RN911) [1] | EC50, pERK inhibition, huTrkA (CHO), pre-incubation 1 hour, 3/26/11 (RN911) [1] | EC50, pERK inhibition, huTrkA (CHO), pre-incubation 1 hour, 3/31/11 (RN911) [1] | EC50, pERK inhibition, huTrkA (CHO), pre-incubation 6 hour, 3/31/11 (RN911) [1] | Kd [2] | Ki [3] | Kd [4] | Kd [5]
B1 | 0.67 nM | 0.46 nM | 0.47 nM | 0.62 nM | 0.57 nM | 0.755 nM | 4.2 nM |  | 
B2 |  |  |  |  |  |  |  | 2.1 nM | 4.35 nM
B3 |  |  |  |  |  |  |  | 0.515 nM | 0.748 nM
